Measured values as given in IntAct's records for PubMed 31515488.

B1: TNF receptor-associated factor 1 (Homo sapiens), Q13077 (parent)
chain: MASSSGSSPRPAPDENEFPFGCPPTVCQDPKEPRALCCAGCLSENPRNGEDQICPKCRGEDLQSISPGSRLRTQEKAHPEVAEAGIGCPFAGVGCSFKGSPQSVQEHEVTSQTSHLNLLLGFMKQWKARLGCGLESGPMALEQNLSDLQLQAAVEVAGDLEVDCYRAPCSESQEELALQHFMKEKLLAELEGKLRVFENIVAVLNKEVEASHLALATSIHQSQLDRERILSLEQRVVELQQTLAQKDQALGKLEQSLRLMEEASFDGTFLWKITNVTRRCHESACGRTVSLFSPAFYTAKYGYKLCLRLYLNGDGTGKRTHLSLFIVIMRGEYDALLPWPFRNKVTFMLLDQNNREHAIDAFRPDLSSASFQRPQSETNVASGCPLFFPLSKLQSPKHAYVKDDTMFLKCIVETST
B2: Calcium-binding and coiled-coil domain-containing protein 2 (Homo sapiens), Q13137 (parent)
chain: MEETIKDPPTSAVLLDHCHFSQVIFNSVEKFYIPGGDVTCHYTFTQHFIPRRKDWIGIFRVGWKTTREYYTFMWVTLPIDLNNKSAKQQEVQFKAYYLPKDDEYYQFCYVDEDGVVRGASIPFQFRPENEEDILVVTTQGEVEEIEQHNKELCKENQELKDSCISLQKQNSDMQAELQKKQEELETLQSINKKLELKVKEQKDYWETELLQLKEQNQKMSSENEKMGIRVDQLQAQLSTQEKEMEKLVQGDQDKTEQLEQLKKENDHLFLSLTEQRKDQKKLEQTVEQMKQNETTAMKKQQELMDENFDLSKRLSENEIICNALQRQKERLEGENDLLKRENSRLLSYMGLDFNSLPYQVPTSDEGGARQNPGLAYGNPYSGIQESSSPSPLSIKKCPICKADDICDHTLEQQQMQPLCFNCPICDKIFPATEKQIFEDHVFCHSL
partner: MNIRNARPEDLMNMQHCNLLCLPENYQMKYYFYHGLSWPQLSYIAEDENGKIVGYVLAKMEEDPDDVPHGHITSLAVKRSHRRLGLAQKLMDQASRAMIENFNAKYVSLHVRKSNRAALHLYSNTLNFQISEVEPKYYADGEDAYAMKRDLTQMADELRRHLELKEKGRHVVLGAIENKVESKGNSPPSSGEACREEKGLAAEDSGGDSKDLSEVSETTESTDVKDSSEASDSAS
B3: Outer dense fiber protein 1 (Homo sapiens), Q14990 (parent)
chain: MAALSCLLDSVRRDIKKVDRELRQLRCIDEFSTRCLCDLYMHPYCCCDLHPYPYCLCYSKRSRSCGLCDLYPCCLCDYKLYCLRPSLRSLERKAIRAIEDEKRELAKLRRTTNRILASSCCSSNILGSVNVCGFEPDQVKVRVKDGKVCVSAERENRYDCLGSKKYSYMNICKEFSLPPCVDEKDVTYSYGLGSCVKIESPCYPCTSPCSPCSPCSPCNPCSPCNPCSPYDPCNPCYPCGSRFSCRKMIL
B4: Protein FAM9B (Homo sapiens), Q8IZU0 (parent)
chain: MAAWGKKHAGKDPVRDECEERNRFTETREEDVTDEHGEREPFAETDEHTGANTKKPEDTAEDLTAKRKRMKMDKTCSKTKNKSKHALRKKQLKRQKRDYIHSLKLLNVLEEYITDEQKEEEEEEGEEEELIRIFQEQQKKWQQYRSVRRERLKEMKLLRDQFVKALEDFEDLCDRVFSDEDSELDN
partner: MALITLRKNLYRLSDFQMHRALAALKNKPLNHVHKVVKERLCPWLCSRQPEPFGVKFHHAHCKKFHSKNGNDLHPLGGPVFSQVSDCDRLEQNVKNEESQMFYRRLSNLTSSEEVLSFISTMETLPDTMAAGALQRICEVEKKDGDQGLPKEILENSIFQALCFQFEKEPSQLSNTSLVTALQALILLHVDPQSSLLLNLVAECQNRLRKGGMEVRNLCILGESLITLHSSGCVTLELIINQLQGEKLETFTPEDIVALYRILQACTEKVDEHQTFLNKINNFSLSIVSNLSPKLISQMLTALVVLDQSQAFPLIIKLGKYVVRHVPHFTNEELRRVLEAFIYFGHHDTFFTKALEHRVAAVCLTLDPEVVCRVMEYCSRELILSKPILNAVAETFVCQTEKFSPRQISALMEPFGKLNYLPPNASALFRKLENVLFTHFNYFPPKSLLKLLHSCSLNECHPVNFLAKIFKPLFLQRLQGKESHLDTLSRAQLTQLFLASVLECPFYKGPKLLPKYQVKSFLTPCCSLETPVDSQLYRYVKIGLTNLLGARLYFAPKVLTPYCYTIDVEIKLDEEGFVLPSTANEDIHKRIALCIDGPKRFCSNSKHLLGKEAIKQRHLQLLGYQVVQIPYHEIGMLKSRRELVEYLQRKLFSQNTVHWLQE
B5: Ribonuclease P protein subunit p25-like protein (Homo sapiens), Q8N5L8 (parent)
chain: MEHYRKAGSVELPAPSPMPQLPPDTLEMRVRDGSKIRNLLGLALGRLEGGSARHVVFSGSGRAAGKAVSCAEIVKRRVPGLHQLTKLRFLQTEDSWVPASPDTGLDPLTVRRHVPAVWVLLSRDPLDPNECGYQPPGAPPGLGSMPSSSCGPRSRRRARDTRS
partner: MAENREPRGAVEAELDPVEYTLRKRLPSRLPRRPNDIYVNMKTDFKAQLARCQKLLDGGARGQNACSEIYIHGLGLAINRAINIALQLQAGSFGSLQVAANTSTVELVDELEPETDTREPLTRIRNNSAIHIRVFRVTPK
B6: Myomegalin (Homo sapiens), Q5VU43-2 (parent)
chain: MKEICRICARELCGNQRRWIFHTASKLNLQVLLSHVLGKDVPRDGKAEFACSKCAFMLDRIYRFDTVIARIEALSIERLQKLLLEKDRLKFCIASMYRKNNDDSGAEIKAGNGTVDMSVLPDARYSALLQEDFAYSGFECWVENEDQIQEPHSCHGSEGPGNRPRRCRGCAALRVADSDYEAICKVPRKVARSISCGPSSRWSTSICTEEPALSEVGPPDLASTKVPPDGESMEEETPGSSVESLDASVQASPPQQKDEETERSAKELGKCDCCSDDQAPQHGCNHKLELALSMIKGLDYKPIQSPRGSRLPIPVKSSLPGAKPGPSMTDGVSSGFLNRSLKPLYKTPVSYPLELSDLQELWDDLCEDYLPLRVQPMTEELLKQQKLNSHETTITQQSVSDSHLAELQEKIQQTEATNKILQEKLNEMSYELKCAQESSQKQDGTIQNLKETLKSRERETEELYQVIEGQNDTMAKLREMLHQSQLGQLHSSEGTSPAQQQVALLDLQSALFCSQLEIQKLQRVVRQKERQLADAKQCVQFVEAAAHESEQQKEASWKHNQELRKALQQLQEELQNKSQQLRAWEAEKYNEIRTQEQNIQHLNHSLSHKEQLLQEFRELLQYRDNSDKTLEANEMLLEKLRQRIHDKAVALERAIDEKFSALEEKEKELRQLRLAVRERDHDLERLRDVLSSNEATMQSMESLLRAKGLEVEQLSTTCQNLQWLKEEMETKFSRWQKEQESIIQQLQTSLHDRNKEVEDLSATLLCKLGPGQSEIAEELCQRLQRKERMLQDLLSDRNKQVLEHEMEIQGLLQSVSTREQESQAAAEKLVQALMERNSELQALRQYLGGRDSLMSQAPISNQQAEVTPTGRLGKQTDQGSMQIPSRDDSTSLTAKEDVSIPRSTLGDLDTVAGLEKELSNAKEELELMAKKERESQMELSALQSMMAVQEEELQVQAADMESLTRNIQIKEDLIKDLQMQLVDPEDIPAMERLTQEVLLLREKVASVESQGQEISGNRRQQLLLMLEGLVDERSRLNEALQAERQLYSSLVKFHAHPESSERDRTLQVELEGAQVLRSRLEEVLGRSLERLNRLETLAAIGGAAAGDDTEDTSTEFTDSIEEEAAHHSHQQL
partner: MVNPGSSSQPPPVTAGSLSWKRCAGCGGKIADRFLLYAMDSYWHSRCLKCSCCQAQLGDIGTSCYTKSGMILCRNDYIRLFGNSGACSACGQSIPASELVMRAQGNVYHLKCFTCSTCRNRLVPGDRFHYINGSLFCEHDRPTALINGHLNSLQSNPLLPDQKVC
B7: F-BAR domain only protein 1 (Homo sapiens), O14526 (parent)
chain: MSYFGEHFWGEKNHGFEVLYHSVKQGPISTKELADFIRERATIEETYSKAMAKLSKLASNGTPMGTFAPLWEVFRVSSDKLALCHLELTRKLQDLIKDVLRYGEEQLKTHKKCKEEVVSTLDAVQVLSGVSQLLPKSRENYLNRCMDQERLRRESTSQKEMDKAETKTKKAAESLRRSVEKYNSARADFEQKMLDSALRFQAMEETHLRHMKALLGSYAHSVEDTHVQIGQVHEEFKQNIENVSVEMLLRKFAESKGTGREKPGPLDFEAYSAAALQEAMKRLRGAKAFRLPGLSRREREPEPPAAVDFLEPDSGTCPEVDEEGFTVRPDVTQNSTAEPSRFSSSDSDFDDEEPRKFYVHIKPAPARAPACSPEAAAAQLRATAGSLILPPGPGGTMKRHSSRDAAGKPQRPRSAPRTSSCAERLQSEEQVSKNLFGPPLESAFDHEDFTGSSSLGFTSSPSPFSSSSPENVEDSGLDSPSHAAPGPSPDSWVPRPGTPQSPPSCRAPPPEARGIRAPPLPDSPQPLASSPGPWGLEALAGGDLMPAPADPTAREGLAAPPRRLRSRKVSCPLTRSNGDLSRSLSPSPLGSSAASTALERPSFLSQTGHGVSRGPSPVVLGSQDALPIATAFTEYVHAYFRGHSPSCLARVTGELTMTFPAGIVRVFSGTPPPPVLSFRLVHTTAIEHFQPNADLLFSDPSQSDPETKDFWLNMAALTEALQRQAEQNPTASYYNVVLLRYQFSRPGPQSVPLQLSAHWQCGATLTQVSVEYGYRPGATAVPTPLTNVQILLPVGEPVTNVRLQPAATWNLEEKRLTWRLPDVSEAGGSGRLSASWEPLSGPSTPSPVAAQFTSEGTTLSGVDLELVGSGYRMSLVKRRFATGMYLVSC
partner: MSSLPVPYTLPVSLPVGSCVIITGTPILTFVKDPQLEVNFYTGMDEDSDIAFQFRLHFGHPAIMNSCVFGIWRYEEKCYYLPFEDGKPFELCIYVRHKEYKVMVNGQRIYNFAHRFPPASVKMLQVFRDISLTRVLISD
B8: U3 small nucleolar RNA-associated protein 14 homolog C (Homo sapiens), Q5TAP6 (parent)
chain: MNVNQVAENLALSHQEELVDLPKNYPLSENEDEGDSDGERKHQKLLEAIISLDGKNRRKLAERSEASLKVSEFSVSSEGSGEKLGLADLLEPVKTSSSLATVKKQLNRVKSKKVVELPLNKEKIEQIHREVAFSKTSQVLSKWDPIILKNQQAEQLVFPLGKEQPAIAPIEHALSGWKARTPLEQEIFNLLHKNKQPVTDPLLTPMEKASLQAMSLEEAKMHRAELQRARALQSYYEAKARKEKKIKSKKYHKVVKKGKAKKALKEFEQLQKVNPTVALEEMEKIENARMMERMSLKHQNSGKWAKSKAIMAKYDLEARQAMQEQLAKNKELTQKLQVASESEEEEGGTEVEELLVPHVANEVQMNVDGPNPWMFRSCTSDTKEAATQEDPEQVPELAAHEVSASEAEERPVAEEEILLREFEERQSLRKRSELNQDAEPASSQETKDSSSQEVLSELRALSQKLKEKHQSRKQKASSEGTVPQVQREEPAPEEAEPLLLQRSERVQTLEELEELGKEDCFQNKELPRPVLEGQQSERTPNNRPDAPKEKKEKEQLINLQNFLTTQSPSVRSLAVPTIIEELEDEEERDQRQMIKEAFAGDDVIRDFLKEKREAVEASKPKDVDLTLPGWGEWGGVGLKPSAKKRRQFLIKAPEGPPRKDKNLPNVIISEKRNIHAAAHQVQVLPYPFTHHRQFERTIQTPIGSTWNTQRAFQKLTTPKVVTKPGHIIKPIKAEDVGYQSSSRSDLPVIQRNPKRITTRHNKEEKL

Variants of: B1
Conditions: with traf2_human TRAF2, Q12933
Chain of traf2_human TRAF2, Q12933 (Q12933 whole entry): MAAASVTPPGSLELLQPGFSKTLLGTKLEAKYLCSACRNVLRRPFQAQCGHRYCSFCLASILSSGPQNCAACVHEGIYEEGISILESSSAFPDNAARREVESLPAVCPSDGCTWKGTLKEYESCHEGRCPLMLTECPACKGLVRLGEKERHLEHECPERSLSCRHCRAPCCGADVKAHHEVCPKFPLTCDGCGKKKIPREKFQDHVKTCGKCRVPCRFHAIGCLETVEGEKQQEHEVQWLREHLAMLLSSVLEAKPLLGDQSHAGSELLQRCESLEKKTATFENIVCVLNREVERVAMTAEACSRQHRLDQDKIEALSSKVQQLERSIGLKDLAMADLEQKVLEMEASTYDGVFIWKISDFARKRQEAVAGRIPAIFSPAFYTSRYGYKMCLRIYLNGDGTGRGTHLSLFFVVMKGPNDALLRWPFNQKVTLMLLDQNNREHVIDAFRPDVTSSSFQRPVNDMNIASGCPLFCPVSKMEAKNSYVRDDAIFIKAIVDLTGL

Row | effect of a mutation on the interaction | Variant
1 | with no effect | R226C
2 | with no effect | R226H
3 | with no effect | R228H
4 | with no effect | R228C

Variants of: B2
Conditions: with naa10_human NAA10, P41227

Row | effect of a mutation on the interaction | Variant
5 | with no effect | T273A
6 | with no effect | P389A
7 | with no effect | E222K

Variants of: B3
Conditions: with mtus2_human MTUS2, Q5JR59
Chain of mtus2_human MTUS2, Q5JR59 (Q5JR59 whole entry): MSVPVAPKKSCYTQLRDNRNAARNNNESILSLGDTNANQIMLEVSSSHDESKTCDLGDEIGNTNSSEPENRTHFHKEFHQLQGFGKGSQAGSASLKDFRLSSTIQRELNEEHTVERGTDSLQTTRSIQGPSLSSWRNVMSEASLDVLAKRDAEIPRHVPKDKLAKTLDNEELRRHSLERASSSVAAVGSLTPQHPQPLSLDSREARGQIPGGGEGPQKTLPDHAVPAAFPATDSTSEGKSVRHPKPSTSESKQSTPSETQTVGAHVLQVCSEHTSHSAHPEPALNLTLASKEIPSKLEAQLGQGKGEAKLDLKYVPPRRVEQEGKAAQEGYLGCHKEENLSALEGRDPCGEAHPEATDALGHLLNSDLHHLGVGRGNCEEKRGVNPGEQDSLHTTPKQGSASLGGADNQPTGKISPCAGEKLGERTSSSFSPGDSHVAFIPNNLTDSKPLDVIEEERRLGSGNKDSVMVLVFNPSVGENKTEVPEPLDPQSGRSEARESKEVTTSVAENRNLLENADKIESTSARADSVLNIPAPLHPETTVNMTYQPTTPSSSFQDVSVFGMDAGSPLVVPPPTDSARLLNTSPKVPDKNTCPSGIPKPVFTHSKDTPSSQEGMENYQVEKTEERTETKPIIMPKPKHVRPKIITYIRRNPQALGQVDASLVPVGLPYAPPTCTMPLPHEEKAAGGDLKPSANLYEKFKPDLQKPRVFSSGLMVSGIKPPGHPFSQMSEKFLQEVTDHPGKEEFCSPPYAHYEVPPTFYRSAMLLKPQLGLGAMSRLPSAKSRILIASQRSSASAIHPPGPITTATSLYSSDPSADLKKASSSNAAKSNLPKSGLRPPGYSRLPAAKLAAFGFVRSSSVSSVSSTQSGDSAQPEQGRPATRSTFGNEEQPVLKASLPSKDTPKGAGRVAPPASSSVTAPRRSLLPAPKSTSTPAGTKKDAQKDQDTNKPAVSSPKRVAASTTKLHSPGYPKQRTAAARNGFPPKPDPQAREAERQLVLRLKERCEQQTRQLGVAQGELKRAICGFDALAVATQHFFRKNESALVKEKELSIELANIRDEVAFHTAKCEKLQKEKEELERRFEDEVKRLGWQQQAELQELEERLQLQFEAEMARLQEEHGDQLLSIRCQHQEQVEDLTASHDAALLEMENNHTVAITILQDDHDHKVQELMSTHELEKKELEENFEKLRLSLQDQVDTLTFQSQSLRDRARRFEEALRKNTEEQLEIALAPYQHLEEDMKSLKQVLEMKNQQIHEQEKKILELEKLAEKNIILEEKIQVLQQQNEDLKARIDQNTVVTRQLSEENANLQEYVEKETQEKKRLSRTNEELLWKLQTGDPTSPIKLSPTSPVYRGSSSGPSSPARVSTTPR

Row | effect of a mutation on the interaction | Variant
8 | with no effect | K17N
9 | with no effect | S89I

Variants of: B4
Conditions: with fakd3_human FASTKD3, Q14CZ7

Row | effect of a mutation on the interaction | Variant
10 | with no effect | R23H

Variants of: B5
Conditions: with pop7_human POP7, O75817

Row | effect of a mutation on the interaction | Variant
11 | with no effect | D127N

Variants of: B6
Conditions: with lmo4_human LMO4, P61968

Row | effect of a mutation on the interaction | Variant
12 | with no effect | N28S

Variants of: B7
Conditions: with ppl13_human LGALS14, Q8TCE9

Row | effect of a mutation on the interaction | Variant
13 | with no effect | E423G

Variants of: B8
Conditions: with myome_human PDE4DIP

Row | effect of a mutation on the interaction | Variant
14 | with no effect | A652T
15 | with no effect | R672H
